Results: patent publication US9370555B2, “Surfactant protein D for the treatment of disorders associated with lung injury” (priority 1998, dated 2016)
Entries after “also recorded” stand apart in the source; their conditions may differ.

Experiments:
[1] = Surface tension by captive bubble surfactometer; type: physicochemical; settings: 15 μg/μL SURVANTA with 2% rhSP-D or buffer
Experimental: (§1) Surface tension was measured by captive bubble surfactometer (Schoel M, et al. The captive bubble method for the evaluation of pulmonary surfactant: surface tension, area, and volume calculations. Biochim Biophys Acta 1994; 1200:281-290) on 3 μL of samples containing 15 μg/μL […]® and 2% rhSP-D or buffer in the presence or absence of surfactant inhibitor (21 μg/μL plasma protein) (Ikegami M, et al. Characteristics of surfactant from SP-A deficient mice. Am J Physiol Lung Cell Mol Physiol 1998; 275:L247-L25). This amount of plasma protein relative to […]® was 30% lower than the concentration that is known to inhibit the activity of […]® in the ventilated premature newborn lamb lung in vivo (Wada K, et al. Tidal volume effects on surfactant treatment responses with the initiation of ventilation in preterm lambs. J Appl Physiol 1997; 83:1054-1061). The influence of rhSP-D on the ultrastructure of […]® was studied as previously described (Schmiedl A, et al. Influence of plasma and inflammatory proteins on the ultrastructure of exogenous surfactant. J Electron Microsc (Tokyo) 2004; 53:407-416).

premature lambs [2] = assay: Pulmonary inflammation in ventilated premature lambs (BALF cells, NE activity, cytokine mRNA and protein, flow cytometry); type: in vivo, sheep
Experimental: A five hour study period was chosen to detect changes in proinflammatory cytokine mRNAs induced by initial ventilation (Naik A S, et al. Effects of ventilation with different positive end-expiratory pressures on cytokine expression in the preterm lamb lung. Am J Respir Crit Care Med 2001; 164:494-498). After five hours, lambs were ventilated with FiO2=1 for five minutes, then given 100 mg pentobarbital intravascularly, after which the endotracheal tube was clamped to permit oxygen absorption atelectasis (Ikegami M, et al. Intratracheal recombinant surfactant protein D prevents endotoxin shock in the newborn preterm lamb. Am J Respir Crit Care Med 2006; 173:1342-1347; Ikegami M, Jobe A. Postnatal lung inflammation increased by ventilation of preterm lambs exposed antenatally to E. coli endotoxin. Pediatr Res 2002; 52:356-362). After the thorax was opened, the deflation limb of pressure-volume curve was measured (Kramer B W, et al. Surfactant protein A recruits neutrophils into the lungs of ventilated preterm lambs. Am J Respir Crit Care Med 2001; 163:158-165; Ikegami M, et al. Intratracheal recombinant surfactant protein D prevents endotoxin shock in the newborn preterm lamb. Am J Respir Crit Care Med 2006; 173:1342-1347). Lung tissue of the right lower lobe was frozen in liquid nitrogen for RNA isolation and measurement of neutrophil elastase (NE) activity (Lowry O H, et al. Protein measurement with the Folin phenol reagent. J Biol Chem 1951; 193:265-275; Watterberg K L, et al. Secretory leukocyte protease inhibitor and lung inflammation in developing bronchopulmonary dysplasia. J Pediatr 1994; 125:264-269). NE is a potent serine proteinase, responsible for tissue destruction in the adult lung with emphysema (Shapiro S D, et al. Neutrophil elastase contributes to cigarette smoke-induced emphysema in mice. Am J Pathol 2003; 163:2329-2335). In the preterm newborn lung, increased NE activity affects lung remodeling and increases alveolar epithelial apoptosis and the development of BPD (Watterberg K L, et al. Secretory leukocyte protease inhibitor and lung inflammation in developing bronchopulmonary dysplasia. J Pediatr 1994; 125:264-269; Yasumatsu R, et al. SERPINB1 upregulation is associated with in vivo complex formation with neutrophil elastase and cathepsin G in a baboon model of bronchopulmonary dysplasia. Am J Physiol Lung Cell Mol Physiol 2006; 291:L619-L627). NE activity was assessed by a spectrophotometric assay using a chromogenic substrate specific for NE, N-methoxy-succinyl-Ala-Ala-Pro-Val pNA (Yasumatsu R, et al. SERPINB1 upregulation is associated with in vivo complex formation with neutrophil elastase and cathepsin G in a baboon model of bronchopulmonary dysplasia. Am J Physiol Lung Cell Mol Physiol 2006; 291:L619-L627).
; Lung tissue of the right middle lobe was homogenized in 0.9% NaCl and supernatant after centrifugation at 1,000×g for 15 minutes and frozen for ELISA of proinflammatory cytokine proteins (Kramer B W, et al. Surfactant protein A recruits neutrophils into the lungs of ventilated preterm lambs. Am J Respir Crit Care Med 2001; 163:158-165; Ikegami M, et al. Intratracheal recombinant surfactant protein D prevents endotoxin shock in the newborn preterm lamb. Am J Respir Crit Care Med 2006; 173:1342-1347). BALF was recovered from the left lung (Ikegami M, et al. Whitsett J A. Intratracheal recombinant surfactant protein D prevents endotoxin shock in the newborn preterm lamb. Am J Respir Crit Care Med 2006; 173:1342-1347) for further analyses. Total proteins were analyzed (Lowry O H, et al. Protein measurement with the Folin phenol reagent. J Biol Chem 1951; 193:265-275) in the supernatant of BALF after 10 minutes of centrifugation at 284×g. The right upper lobe was inflation-fixed at 30 cm H2O for morphology (Ikegami M, et al. Surfactant protein-D regulates the postnatal maturation of pulmonary surfactant lipid pool sizes. J Appl Physiol 2009; 106:1545-1552). […]

[3] = Ultrastructure of surfactant mixtures (electron micrographs); type: physicochemical; settings: SURVANTA mixed with buffer or rhSP-D
Experimental: as §1

premature lambs [4] = assay: Lung function and morphology in ventilated premature lambs; type: in vivo, sheep
[5] = CD45-positive cells from BALF, flow cytometry
[6] = premature lambs, five hours of ventilation, +rhSP-D vs control
[7] = premature lambs, mean levels decreased by rhSP-D

B1: rhSP-D: recombinant human surfactant protein D, given mixed with SURVANTA to premature lambs (protein, UniProt P35247 21-375, looked up)
Pulmonary …: AEMKTYSHRTMPSACTLVMCSSVESGLPGRDGRDGREGPRGEKGDPGLPGAAGQAGMPGQAGPVGPKGDNGSVGEPGPKGDTGPSGPPGPPGVPGPAGREGPLGKQGNIGPQGKPGPKGEAGPKGEVGAPGMQGSAGARGLAGPKGERGVPGERGVPGNTGAAGSAGAMGPQGSPGARGPPGLKGDKGIPGDKGAKGESGLPDVASLRQQVEALQGQVQHLQAAFSQYKKVELFPNGQSVGEKIFKTAGFVKPFTEAQLLCTQAGGQLASPRSAAENAALQQLVVAKNEAAFLSMTDSKTEGKFTYPTGESLVYSNWAPGEPNDDGGSEDCVEIFTNGKWNDRACGEKRLVVCEF
[1]; absence of plasma protein
  minimum surface tension: low
[1]; presence of surfactant inhibitor (21 μg/μL plasma protein)
  minimum surface tension: remaining low; also recorded: low minimum surface tension in the presence of plasma protein
Premature lambs [2]; [5]
  expression of CD11b: did not influence expression
  expression of CD44: did not influence expression
Premature lambs [2]; premature lambs, +rhSP-D group, control group 60±7
  proteins in BALF: 57 ± 11 mg/kg
Premature lambs [2]; premature lambs, five hours of ventilation
  lung inflammation: decreased in all the lambs treated with rhSP-D
Premature lambs [2]; [6]
  neutrophils in BALF: significantly decreased; also recorded: suppressed
  total inflammatory cell numbers in BALF: significantly decreased; also recorded: suppressed
Premature lambs [2]; premature lambs, ELISA
  IL-1β protein in the lung: not significantly influenced
Premature lambs [2]; premature lambs, ELISA, +rhSP-D vs control
  IL-8 protein in lung homogenates: significantly decreased
Premature lambs [2]; premature lambs, RT-PCR
  IL-1β mRNA in the lung: not significantly influenced; also recorded: generally lower
Premature lambs [2]; premature lambs, RT-PCR, +rhSP-D vs control
  IL-8 mRNA in the lung: significantly decreased; also recorded: significantly suppressed
Premature lambs [2]; premature lambs, data not shown
  TNF-α mRNA expression: similarly present at low levels in both groups
Premature lambs [2]; [7]
  KC mRNA in the lung: not significantly different; also recorded: generally lower
  MCP1 mRNA in the lung: not significantly different; also recorded: generally lower
Premature lambs [2]; premature lambs, mean, P=0.06, not statistically significant
  IL-6 mRNA expression in the lung: generally lower
Premature lambs [2]; premature lambs, mean, P=0.1, not statistically significant
  IL-6 protein in the lung: lower
Premature lambs [2]; premature lambs, rhSP-D added to SURVANTA vs control, P<0.05
  neutrophil elastase (NE) activity in the lung: decreased NE activity
[3]
  ultrastructure of surfactant: causing the formation of lipid aggregates and multilayers; also recorded: from simple lipid layers to the mixture of multiple lipid layers and lipid aggregates
Premature lambs [4]; premature lambs after surfactant at 20 minutes of age, same for controls
  mean PIP required to regulate VT at 8 to 9 ml/kg: 27 cm H2O
Premature lambs [4]; premature lambs, 7 mg rhSP-D mixed with SURVANTA 100 mg/kg vs SURVANTA+buffer control, P<0.01
  Po2/Fio2: higher
Premature lambs [4]; premature lambs, +rhSP-D vs control
  alveolar fluid: More fluid was noted in alveoli of the control lambs; also recorded: More alveolar fluid was observed in control lambs
Premature lambs [4]; premature lambs, +rhSP-D vs control, after 240 minutes, not statistically significant
  modified ventilation index (MVI): tends to be better (lower)
Premature lambs [4]; premature lambs, +rhSP-D vs control, after five hours
  deflation limb of pressure-volume curves: not different
